Assay results: US20140349928A1 (MEDERIS DIABETES, published 2014)
Non-standard residues stand in square brackets, D forms with d. No end group written: not given here. Aib = CC(C)(N)C(=O)O

Target: GLP-1 receptor
Experiment: cell-based or functional assay

B1: EU-A391 (peptide)
peptide: H[Aib]QGT[Me‑Phe]TSDYSKYLD[Aib]K-NH2
modifications: not fully specified (residue 17); also: 1-dodecyl beta-D-glucuronyl surfactant on a linker residue
- EC50, cAMP generated in cells (GLP-1 cellular assay): 420 nM
